From the DeepSol protein solubility set

Experiment: soluble on expression in E. coli; label from the status in PepcDB or PDB records

| Sequence | soluble on expression in E. coli |
| --- | --- |
| MAVSEIKATMKLKPLKAPVFHKRDKDLRGSFSDHLKHKESKLSPAQLEAFRNAYNFFTKDRTGCIDSHGLISTIAKLGMNLNTYDIYNELKCADLDRDGKINFSDFINVLTDKKLFLKAVVPEKKICLDLANNPGILLFEILSKFVETSSLHRKDIIELVSYFRKRFQESHSEIMWSSYGRRGLKSEICSPPRSSTAAFANSARISIMKERDLYKFLEALKRCNLRTDSPYSKIPVFPLFPDVDGTVMGKPFKDTQKIEMLRRKEPLTFFEDYFFNKRDWKTQAMNVKPLKSASGYSDDILAIDHLFKKKQHWTVTDAAAIKQHVKKATESYNLGIALDHRKEMLNLWKKIRGDLVGIESNNESFYNTFSTYTWSWNVCQELLSAKDLRLHDASMNKSSPSNSGLSSPSDFSESDPETGRKRKRKSSRGFRQ | not soluble |
| SNAEELQALVDNIPAAIYHLDVSGQATIRFRPPAFLKTLVSEHAGTTRLNTLSMIHHDDRHMLSNAYSKLREAKHSLTLVYRIVTPEGKLHWIEDHMRSSFSDDGLFSGIDGILCEVT | soluble |
| MGRLDGKVIILTAAAQGIGQAAALAFAREGAKVIATDINESKLQELEKYPGIQTRVLDVTKKKQIDQFASEVERLDVLFNVAGFVHHGTVLDCEEKDWDFSMNLNVRSMYLMIKAFLPKMLAQKSGNIINMSSVASSVKGVVNRCVYSTTKAAVIGLTKSVAADFIQQGIRCNCVCPGTVDTPSLQERIQARGNPEEARNDFLKRQKTGRFATAEEIAMLCVYLASDESAYVTGNPVIIDGGWSL | not soluble |
| MELLCPAGNLASLKSALQAGADAVYLGLKDDTNARSFAGLNFTPAKLQEAAELTHQRGKKIFLTLNTFPKPNEEHRWYQAIDLAAKIGVDALIVADLSLLDYAHRQYPHIPLHLSVQASATNLGALSFYKEAFNVSRVVLPRVLSMKQVRDLAKVSPVDLEVFAFGSLCIMAEGRCHLSSYVTGQSPNTGGSCSPAKHVRWQEQGQDRLTWLNEVLIDKSGLDEQMGYPVVCKGRYLTQEDDKPQYLLESPTSLNTLSLLPELAKAGIVSLKIEGRQRSPAYVEQVTKVWRQAIDTYLNHPDKFQTQAHWEQALAKVSEGQITTLGAYERNWQ | not soluble |
| MNTGEMKINWVSRYMPLLNKIAEEYSREKPLSGFTVGMSIHLEAKTAYLAITLSKLGAKVVITGSNPLSTQDDVAEALRSKGITVYARRTHDESIYRENLMKVLDERPDFIIDDGGDLTVISHTEREEVLENLKGVSEETTTGVRRLKALEETGKLRVPVIAVNDSKMKYLFDNRYGTGQSTWDAIMRNTNLLVAGKNVVVAGYGWCGRGIALRAAGLGARVIVTEVDPVKAVEAIMDGFTVMPMKEAVKIADFVITASGNTDVLSKEDILSLKDGAVLANAGHFNVEIPVRVLEEIAVEKFEARPNVTGYTLENGKTVFLLAEGRLVNLAAGDGHPVEIMDLSFALQIFAVLYLLENHRKMSPKVYMLPDEIDERVARMKLDSLGVKIDELTEKQRRYLRSWQ | soluble |
| MWSEKHKSGKVNFVERYKHPYTGKWCRASVLMEKDTPRIRKEAQKYLDEKISEILTSLTTTDAYLLDVMNEWWEHHQKSLKSTSVRSLDFRIRELRNLIDPEVMIAKITTKYLQSIIDKIPGSYDKRKRARQLLKQTFDYAIALEYVSINPVISTQLAKPVKTIKDFEDVAQKFLEKDELKRLLDEMYRRKGSIKMAYLAEFMSLNGCRIGEALAIQPDNIKNDIIEIHGTLDYTSNGYRNAIKTTPKTNSSWRETLITKREKEIIQDILKINALEKNTNPNYKDMGYIFISRNGVPIQDNALNTSIRAANKRLEKPIQKELTSHIFRHTLVSRLAENKVPLKTIMDRVGHADSKTTQQIYTHVTKSMKNEVVDILNRL | not soluble |
| RKVAAKMMQHQLEKHLKALNFDNPLFWTSLPTAADVCNAMNKRGLIYYCGDDFGALAGVDHQTVMEHERTLVDSADFILAASDKLAARFPDNKTTTLPHGVDFSLFSTPAEKASDLPNNGRKILGFYGSLSDWLDYRLIDQVAQHAPDWDLVFIGPNEFAHNPLPQRDNVHYLGPRAHHLLPSYSQHWDASWLPFVDNAQIKACNPLKLLE | not soluble |
| MKSHVTDLTETLSSMEISRLEQQLTDFEAKKGSQIALLIIPTTQPETIEQYSIQVAEVWKLGRKGIDDGVLLLVAKNDRTLRIETGYGLEGVLPDALARRIIDEIIVPKFRQGHFFGGLQAGVEQIISIIEGETLPESLEHHHHHH | not soluble |
| MPVILNFSSERVLSESELEALRHVGRVSQSEQLVVRGRTMRLHHISFMDSFSVEPVSGGLLDRLSARGHRLLAENLEIQLNRGHTFLQAFRLYMEQSRATPCTRQNVSSAIQNKINSHAFTVSHQDFSCHEQHLNCPITLCIPETGVFVRNAKNSEICSLYDHNALTELIRRNAPHPLSREPFVPEMIVSKDECHFNLIEQYFCILATQNICTRI | not soluble |
| MKSVTVFLLAGTTFAIYFDGKGSRHSSSSSEEHGGHGPRPGPGGPGRGGNCSPGWLRFERQSGVWCVFVGLAGINDNSFAQKDGQSACVALGATLTGFQNDKERMAVADEAGRKLGAAGGGIAGLWLGATTRAGCKAGACGPLNTFMWTDGVTTGTAGLKWATGEPDSVDYPGTAACIQQFIMLPNWVPGPYDLEGFRTGFTHGILYKFSCIAPVTPGTRMFACGKMAAG | not soluble |
| MGSDKIHHHHHHMFEEIAYMILADGNEKSRFEANAYLRAARSLRSITEDVEDIYNRGGIEALTSVEGIGKKIASYIEEYIKTGRIKRYDDLKIRYPVDFRDLSRVQGLGPRKIVSLYKYAGVKNIDDLKAALADHRIASIPGFGEKSEKEIAENIQIAEMSFRRIPLPQGYRTAMEIADEIERAAGTVRVSVAGSIRRMRDTVGDIDLLCVTSDPPRAIAAFTGSKHCQRVVSSGEKKVTIATDAGVTCDLRIIDKGSFGSALQYFTGSKDHNIKLRKIAIDRGLKLNEYGLFRGNSNLVENQGEEKIYAELGMQYIPPELREDRGEIDRAISMTLPELVEAGDIRGDLYISYEFIRKYGADVLKKMERLQYFGVVLGSPEEKEGIKSVMNDGRIFLGIELTSKTYAEDAGEFDFTVLDLSGFPDEASARGAIESVKPTFIRNVTGRTFSSGRKMDPANIFEAAAKSGSAVMITASNDAFDPVAEDIMPHREGLMFALASFAQRPDDLGDMTFGIGIARRAWISKDRIINTMDYEKIAKIMRRP | not soluble |
| MGSDKIHHHHHHMKHAYLIIAHNEFEILKRLIQALDDERNDIYIHFDRKLNHYPDCRTSYAKLTFLEERMDVRWGDISVVDAEFALFDEAYRRGEYSYYHLLSGVDMPLKTQNYIHRFFEKNAGKEFVGYYQGNISKEIDRKVCRWHLFPKSFKETEGGLAVTKRVLRAGCVRLQSLLGIRRNKDINFRKGTQWLSISNELVGYLLQQQKEVRRVYTHTFCADEIFVQTICWNSSFRDRVYDMHDEGHGCLRMIGWKDNQLEEWKEKDFEILMNSEALFARKFSIRHIEVVDQILNEISK | not soluble |
| MSLPRARSTIAMCLALTALLGACGRSPQECMERAMYFESNRSSRDGMVAVGSVVMNRVESGQYPKSVCGVVGQRFQFAPRIMSRRMDSRSLPLVRETARSVLKGERHPMIGDAMFFHTAGHRFPYDNMHYVLVTGGNAFYERRPSALVTQPVPPQPMEGLTGWRGW | not soluble |
| MEHKIREEMRVLPSIDPQFEIERRVAFIKRKLTEARCKSLVLGISGGVDSTTCGRLAQLAVEELNQQHNTTEYQFIAVRLPYGEQKDEDEAQLALSFIRPTHSVSVNIKAGVDGLHAASHHALANTGLIPSDPAKVDFIKGNVKARARMVAQYEIAGYVGGLVLGTDHSAENITGFYTKFGDGACDLAPLFGLNKRQVRLLAKTLGAPEQLVYKTPTADLEELAPQKADEAALNLTYEQIDDFLEGKAVPAEVSQRLVAIYHATQHKRQPIPTIYD | soluble |
| MHEYSIVSALIEQCEQYAKANQATKVTRVEIKLGVMSGVEPALLQTAFETFKLDGICREAKLCMTLQPLVIKCADCQQESVLDERSIVCPACNSYHTRVLDGEEMLLMQLEMEQAEDA | soluble |
| MGSDKIHHHHHHMSLIHLQADHIRPLVYLHGKVDDHEVAFLEHLNGPPKNAVRVGNTVTFIEHDQTAYSVRAERIQGVLPPAFAGVISDLESGYQFVLGGRSRLAGRPSQLVRIIPNDDNRYSYQVWLDMDTYLPLRYDMLNLEKQLLEQVLVVELIVLDDAPAILREAYKQDWPEIMPQPQREQADNWQFKWLPQGFKILVKDNHRLIGSHEAVEYIALSDGLVNISVYVARAGETALPDELMTRNGLSLAAERVGNAEVVAVGKVPAETLSRIAKSITIE | not soluble |
| GMSTQENVQIVKDFFAAMGRGDKKGLLAVSAEDIEWIIPGEWPLAGTHRGHAALAALLQKASEMVEISYPEPPEFVAQGERVLVVGFATGRVKSTNRTFEDDWVFAITVRKSKVTSIREYIDTLALARATNFNAT | soluble |
| MSLTKYHDLKNKVIVIAGGIKNLGALTAKTFALESVNLVLHYHQAKDSDTANKLKDELEDQGAKVALYQSDLSNEEEVAKLFDFAEKEFGKVDIAINTVGKVLKKPIVETSEAEFDAMDTINNKVAYFFIKQAAKHMNPNGHIITIATSLLAAYTGFYSTYAGNKAPVEHYTRAASKELMKQQISVNAIAPGPMDTSFFYGQETKESTAFHKSQAMGNQLTKIEDIAPIIKFLTTDGWWINGQTIFANGGYTTREGHHHHHH | soluble |
| MIIYRDLISHDVMFSDIYKIREIADGLCLEVEGKMVSRTEGNIDDSLIGGNASAEGPEGEGTESTVITGVDIVMNHHLQETSFTKEAYKKYIKDYMKSIKGKLEEQRPERVKPFMTGAAEQIKHILANFKNYQFFIGENMNPDGMVALLDYREDGVTPYMIFFKDGLEMEKCLEHHHHHH | soluble |
| MGSDKIHHHHHHMSEFDAIFVGAGHNSLACAAHLALKGWKTGIFERSSTIGGAVQTREFTLPGFRHDFGAMNLSLFAGSAFHRKYANELKTQGLEFAPVADCFASAFPDGRWFGVSNDLEKTASRMAAFSAADAATWRKLVAAFPGEAEHLFRLLGSPMSARALAGTAWNLWRKKGVAGALDTGRLLLSSPRTWLEETFESPYVRATLATWGMHLDFAPDIAGGAVFPYLESMANQSFGMVLGKGGADTIIRALAGMVTSAGGKIVTGAEVSEITVSNGKATGVRLTSGETHTATKAVIAGVAPKALTGTLLPGGSGNAGFDTAMKKFRYAPGTMMIHLALDELPGWRAGSELRQFAYVHLSPSLDAMSRTYQQAMAGMLPDEPVLVVGQPTAIDPSRAPQGKHVLWVQVRMLPAEITGDAGGKIAPAHWDQVKDAYAERVLDIIETYAPGLRSKILGRSVFSPIDLERENPNLVGGDQVCGSHHLAQNFLFRPARGYAGWNTPVGNLHLTGAATWPGAGTGAASGFMLAQQLGGR | not soluble |
| MPSCDPGPAPACLPTKTFRSYLPRCHRTYSCVHCRAHLAKHDELISKSFQGSHGRAYLFNSVVNVGCGPAEQRLLLTGLHSVADIFCESCKTTLGWKYEQAFETSQKYKEGKYIIEMSHMVKDNGWD | soluble |
| KSITIQTPYLIPDQPIYESLTIALAAGVKVNIFIPDRPDHPFVYRATQYYAQEFIDFGANVYRYDGGFLHSKLLIIDDEIVSIGSANMDIRSFELSFEANAFIYSSYFAKKIEKQISIDISKSKLLSKKDFETQ | not soluble |
| MARTVFCTRLQKEADGLDFQLYPGELGKRIFDNICKEAWAQWQTKQTMLINEKKLNMMDPEHRKLLEQEMVNFLFEGKEVHIEGYTPPAK | not soluble |
